Measured values published in patent publication US20250051444A1 (published 2025).
Read-outs that look alike come from different tables or passages of the source. Each block holds one binder with its values, some of them ahead of it.

Assays:
Test in all cases: FACS binding to CHO cells
cynomolgus LRRC15 [1] = target: T1, cynomolgus LRRC15 (cynomolgus, UniProt G7NYR2 22-581)
T1 chain: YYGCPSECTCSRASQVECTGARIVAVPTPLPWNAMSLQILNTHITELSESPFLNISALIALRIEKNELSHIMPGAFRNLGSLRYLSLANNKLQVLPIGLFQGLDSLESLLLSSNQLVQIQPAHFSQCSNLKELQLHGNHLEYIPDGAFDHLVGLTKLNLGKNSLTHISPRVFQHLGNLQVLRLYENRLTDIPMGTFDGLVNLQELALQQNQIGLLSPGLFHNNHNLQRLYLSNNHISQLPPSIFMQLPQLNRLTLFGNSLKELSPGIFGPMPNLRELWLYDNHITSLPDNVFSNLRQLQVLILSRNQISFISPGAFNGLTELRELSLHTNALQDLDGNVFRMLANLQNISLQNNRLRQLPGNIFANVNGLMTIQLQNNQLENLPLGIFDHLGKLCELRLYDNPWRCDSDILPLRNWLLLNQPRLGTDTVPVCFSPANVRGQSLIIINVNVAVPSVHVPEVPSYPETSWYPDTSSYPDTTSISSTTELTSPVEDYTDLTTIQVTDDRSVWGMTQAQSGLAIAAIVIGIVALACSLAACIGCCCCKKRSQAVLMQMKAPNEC

[2] = target: T2, human LRRC15 (leucine-rich repeat containing protein 15) (human, UniProt Q8TF66 22-581)
T2 chain: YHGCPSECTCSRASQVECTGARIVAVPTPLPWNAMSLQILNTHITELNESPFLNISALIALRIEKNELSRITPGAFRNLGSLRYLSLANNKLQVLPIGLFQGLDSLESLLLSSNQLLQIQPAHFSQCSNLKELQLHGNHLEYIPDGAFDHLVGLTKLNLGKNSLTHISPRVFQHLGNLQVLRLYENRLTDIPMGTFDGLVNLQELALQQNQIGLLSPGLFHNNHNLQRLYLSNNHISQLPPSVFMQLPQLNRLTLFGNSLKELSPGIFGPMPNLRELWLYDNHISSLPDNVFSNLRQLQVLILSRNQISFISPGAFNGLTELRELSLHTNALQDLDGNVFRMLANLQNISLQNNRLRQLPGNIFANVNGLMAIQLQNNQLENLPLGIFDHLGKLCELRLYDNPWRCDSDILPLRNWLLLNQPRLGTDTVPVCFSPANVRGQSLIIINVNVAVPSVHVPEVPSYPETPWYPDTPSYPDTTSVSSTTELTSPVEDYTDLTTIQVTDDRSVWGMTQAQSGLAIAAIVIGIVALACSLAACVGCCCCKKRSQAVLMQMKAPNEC

[3] = target: T2, human LRRC15 (leucine-rich repeat …)
cynomolgus LRRC15 [4] = target: T1, cynomolgus LRRC15

EC50 (cynomolgus LRRC15 [1]): 1.48 nM
EC50 [2]: 1.15 nM
B1: 153-L06C (bispecific antibody)
chain 1: not shown
chain 2: EPKSCDKTHTCPPCPAPEFEGGPSVFLFPPKPKDTLMISRTPEVTCVVVDVSHEDPEVKFNWYVDGVEVHNAKTKPREEQYNSTYRVVSVLTVLHQDWLNGKEYKCKVSNKALPASIEKTISKAKGQPREPQVCTLPPSRDELTKNQVSLTCLVEGFYPSDIAVEWESNGQPENNYKTTPPVLDSDGSFFLYSDLTVDKSRWQQGNVFSCSVMHEALHNHYTQESLSLSPGK

EC50 [3]: 0.259 nM
EC50 (cynomolgus LRRC15 [4]): 0.277 nM
B2: L15-07 (antibody, V domains shown)
VH: QVQLVQSGAEVKKPGSSVKVSCKASGGTFSTYAISWVRQAPGQGLEWMGGITPMFGTPNYAQKFQGRVTITADESTSTAYMELSSLRSEDTAVYYCARGDWYDYHFDYWGQGTLVTVSS
VL: QSALTQPASVSGSPGQSITISCTGTSSDVGGYNYVSWYQQHPGKAPKLMIYEVSNRPSGVSNRFSGSKSGNTASLTISGLQAEDEADYYCQSYANRDNFVVFGGGTKLTVL

EC50 [3]: 0.376 nM
EC50 (cynomolgus LRRC15 [4]): 0.239 nM
B3: L15-06 (antibody, V domains shown)
VH: EVQLLESGGGLVQPGGSLRLSCAASGFTFSSYYMSWVRQAPGKGLEWVADISVSGSYTNYADSVKGRFTISRDNSKNTLYLQMNSLRAEDTAVYYCARIGSYRSFFSTDDGDSLDYWGQGTLVTVSS
VL: not shown

EC50 (cynomolgus LRRC15 [1]): 0.627 nM
EC50 [2]: 0.488 nM
B4: 315-L06C08 (bispecific antibody)
chain: not shown
heavy: QVQLVESGGGLVKPGGSLRLSCAASGFTFSDYYMSWIRQAPGKGLEWVSDISVSSSYTNYADSVKGRFTISRDNAKNSLYLQMNSLRAEDTAVYYCARLGGYRSFFSTDDGDSLDYWGQGTLVTVSSASTKGPSVFPLAPSSKSTSGGTAALGCLVKDYFPEPVTVSWNSGALTSGVHTFPAVLQSSGLYSLSSVVTVPSSSLGTQTYICNVNHKPSNTKVDKRVEPKSCDKTHTCPPCPAPEFEGGPSVFLFPPKPKDTLMISRTPEVTCVVVDVSHEDPEVKFNWYVDGVEVHNAKTKPREEQYNSTYRVVSVLTVLHQDWLNGKEYKCKVSNKALPASIEKTISKAKGQPREPQVCTLPPSRDELTKNQVSLTCLVEGFYPSDIAVEWESNGQPENNYKTTPPVLDSDGSFFLYSDLTVDKSRWQQGNVFSCSVMHEALHNHYTQESLSLSPGK
light: not shown

EC50 [3]: 0.285 nM
EC50 (cynomolgus LRRC15 [4]): 0.165 nM
B5: L15-03 (antibody, V domains shown)
VH: QVQLVQSGAEVKKPGSSVKVSCKASGGTFSSYTISWVRQAPGQGLEWMGGIIPMFGTANYAQKFQGRVTITADESTSTAYMELSSLRSEDTAVYYCARGVALLATDFDYWGQGTLVTVSS
VL: QSALTQPASVSGSPGQSITISCTGTSSDVGGYNYVSWYQQHPGKAPKLMIYEVSNRPSGVSNRFSGSKSGNTASLTISGLQAEDEADYYCQSWTHDNSVVFGGGTKLTVL

EC50 [3]: 0.633 nM
EC50 (cynomolgus LRRC15 [4]): 0.19 nM
B6: L15-08 (antibody, V domains shown)
VH: QVQLVESGGGLVKPGGSLRLSCAASGFTFSDYYMSWIRQAPGKGLEWVSDISVSSSYTNYADSVKGRFTISRDNAKNSLYLQMNSLRAEDTAVYYCARLGGYRSFFSTDDGDSLDYWGQGTLVTVSS
VL: not shown
